How the values were obtained:
[1] = biological target: CosR (Campylobacter jejuni) (UniProt A0A3H9R6A1); assay: fluorescence polarization; details: FP: 10 mM PBS pH 7.4, 5 nM fluoresceinated DNA, 1 ug poly(dI-dC), 25 C
[2] = biological target: Campylobacter jejuni CosR regulator (Campylobacter jejuni); assay: crystal structure; CosR (320 uM) with 21 bp DNA2 duplex (192 uM), vapor diffusion, Na-MES pH 6.5, 2.20 Å
[3] = biological target: Campylobacter jejuni CosR regulator (Campylobacter jejuni); assay: crystal structure; CosR (8 mg/mL) with 21 bp DNA1 duplex (2.6 mg/mL), vapor diffusion, Na-MES pH 6.5, 2.90 Å; the dimer is formed by a crystallographic symmetry operator
[4] = biological target: Campylobacter jejuni CosR regulator (Campylobacter jejuni); assay: cryo-EM structure; single-particle cryo-EM of 20 uM CosR incubated 2 h with 10 uM 40 bp ds-DNA; the class of DNA-free particles (apo-CosR) sorted in silico (build and retrieve), 3.77 Å

stoichiometry N [2] | stoichiometry N [3] | stoichiometry N [4] | Substance | Kd [1]
– | – | – | AATTAAGATATTATTAACCAA (double strand) [DNA2 (fluorescein)] | 2.5 nM
2 | 2 | 2 | Campylobacter jejuni CosR regulator (natural protein) | –
– | – | – | TATTAACCAAAATTAAGATAT (double strand) [DNA1 (fluorescein)] | 4.5 nM

— publication PMC10936212
